Results from PMC4687731.

Tests used:
Assay in all cases: EMSA
DMP1α (DMTF1 isoform α) = target: T1, DMP1α (DMTF1 isoform α) (human, UniProt Q9Y222 1-760)
T1 sequence: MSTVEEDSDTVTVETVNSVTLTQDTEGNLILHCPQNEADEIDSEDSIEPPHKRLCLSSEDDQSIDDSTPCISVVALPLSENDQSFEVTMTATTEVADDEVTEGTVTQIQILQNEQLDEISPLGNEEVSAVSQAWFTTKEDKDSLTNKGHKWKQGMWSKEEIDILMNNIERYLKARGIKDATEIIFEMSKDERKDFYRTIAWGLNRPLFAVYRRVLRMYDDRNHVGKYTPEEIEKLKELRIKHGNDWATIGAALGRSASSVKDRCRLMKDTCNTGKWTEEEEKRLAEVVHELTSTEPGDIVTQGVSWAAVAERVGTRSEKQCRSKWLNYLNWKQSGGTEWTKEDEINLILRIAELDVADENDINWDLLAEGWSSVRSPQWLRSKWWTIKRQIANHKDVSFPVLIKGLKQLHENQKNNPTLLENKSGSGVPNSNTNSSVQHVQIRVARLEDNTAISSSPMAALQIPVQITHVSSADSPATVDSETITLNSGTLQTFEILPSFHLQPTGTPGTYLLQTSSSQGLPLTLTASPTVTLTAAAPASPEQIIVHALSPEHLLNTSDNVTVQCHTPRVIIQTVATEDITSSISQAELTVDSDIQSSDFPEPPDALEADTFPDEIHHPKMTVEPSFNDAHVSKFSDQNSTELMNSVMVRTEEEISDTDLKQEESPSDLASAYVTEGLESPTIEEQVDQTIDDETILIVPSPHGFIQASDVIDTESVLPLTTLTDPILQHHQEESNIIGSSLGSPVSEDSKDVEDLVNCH

DMP1β (DMTF1 isoform β) = target: T2, DMP1β (DMTF1 isoform β) (human, UniProt Q9Y222-2 1-272)
T2 sequence: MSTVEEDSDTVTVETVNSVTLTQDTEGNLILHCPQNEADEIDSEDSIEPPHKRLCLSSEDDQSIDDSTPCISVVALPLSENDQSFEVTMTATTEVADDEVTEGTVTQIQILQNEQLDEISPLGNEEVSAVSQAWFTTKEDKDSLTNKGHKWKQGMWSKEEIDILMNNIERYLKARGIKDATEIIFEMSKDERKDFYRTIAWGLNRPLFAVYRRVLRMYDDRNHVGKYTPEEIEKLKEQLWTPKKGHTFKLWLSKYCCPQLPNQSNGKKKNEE

DMP1 ΔMHR = target: T3, DMP1 ΔMHR (human, UniProt Q9Y222 1-223)
T3 sequence: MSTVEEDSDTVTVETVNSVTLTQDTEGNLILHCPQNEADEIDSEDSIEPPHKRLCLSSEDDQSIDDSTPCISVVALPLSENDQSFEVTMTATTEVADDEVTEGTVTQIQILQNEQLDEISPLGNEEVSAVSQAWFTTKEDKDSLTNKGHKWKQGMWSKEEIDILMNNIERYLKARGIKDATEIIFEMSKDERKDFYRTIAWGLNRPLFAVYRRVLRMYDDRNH

DMP1γ (DMTF1 isoform γ) = target: T4, DMP1γ (DMTF1 isoform γ) (human, UniProt Q9Y222-3 1-285)
T4 sequence: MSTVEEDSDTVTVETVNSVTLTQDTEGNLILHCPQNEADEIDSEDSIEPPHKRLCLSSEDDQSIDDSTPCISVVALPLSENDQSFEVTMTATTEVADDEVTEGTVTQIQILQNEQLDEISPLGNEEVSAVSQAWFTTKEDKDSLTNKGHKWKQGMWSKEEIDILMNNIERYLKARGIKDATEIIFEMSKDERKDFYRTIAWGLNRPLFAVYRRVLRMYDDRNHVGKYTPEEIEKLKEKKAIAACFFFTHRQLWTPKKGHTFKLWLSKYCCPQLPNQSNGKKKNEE

B1: human ARF promoter DMP1 site probe (dsDNA)
DNA 1: GTCAGGTGACGGATGTAGCTAGG
DNA 2: CCTAGCTACATCCGTCACCTGAC
B1: binds (DMP1α (DMTF1 isoform α)); no binding (DMP1β (DMTF1 isoform β)); no binding (DMP1 ΔMHR). B1: no binding (DMP1γ (DMTF1 isoform γ)).
